Data on one molecule can be found in US20200010567A1 (NEURIMMUNE, published 2020).

For test [1], the target named is T1, BSA-coupled (PR)15 DPR protein peptide (bovine, conjugated via a bifunctional linker (SMCC) to bovine serum albumin).
T1 construct: also called BSA-(PR)15
The experiment in a line: indirect ELISA, BSA-coupled peptide coated, antibody titrated [also D00016 FIG. 3M]. On the procedure: (§1) In brief, dipeptide repeat proteins were synthesized and purified by Schafer-N(Copenhagen, Denmark): (GA)₁₅: H-CHHHHHH(GA)₁₅-OH; (GP)₁₅: H-C(GP)₁₅-OH; (GR)₁₅: H-C(GR)₁₅-OH; (PA)₁₅: H-C(PA)₁₅-OH; (PR)₁₅: H—C(PR)₁₅-OH. DPR protein peptides were then conjugated via a bifunctional linker (SMCC) to bovine serum albumin (BSA). 96-well microplates (Corning Incorporated, Corning, USA) were coated with BSA-coupled or -uncoupled dipeptide repeat protein peptides at a concentration of either 5 μg/ml or 20 μg/ml in coating buffer (15 mM Na₂CO₃, 35 mM NaHCO₃, pH 9.42). Non-specific binding sites were blocked for 1 h at room temperature with PBS/0.1% Tween®-20 containing 2% BSA (Sigma-Aldrich, Buchs, Switzerland). Primary antibodies were diluted to the indicated concentrations and incubated 1 h at room temperature, followed by incubation with a donkey anti-human IgG Fcγ-specific antibody conjugated with HRP (Jackson ImmunoResearch Laboratories, Inc., West Grove, USA). Binding was determined by measurement of HRP activity in a standard colorimetric assay. EC₅₀ values were estimated by non-linear regression using GraphPad Prism software (San Diego, USA).
In general terms: In an ELISA, binding on a coated surface is turned into a signal by an enzyme label.

Test [2] addresses T2, BSA-coupled (GP)15 DPR protein peptide (bovine, conjugated via a bifunctional linker (SMCC) to bovine serum albumin).
T2 construct: also called BSA-(GP)15
As to the kind of experiment: Western blot of BSA-coupled peptides. As for the experimental part:
(§2) Resolved proteins were then electroblotted (Novex® Semi-Dry Blotter, 1 h, 25V) on methanol-activated PVDF membranes (Immobilon®-P Transfer Membrane, Merck & Cie, Schaffhausen, Switzerland) by the use of Novex® NuPAGE® transfer buffer 2× (Life Technologies Europe B.V., Zug, Switzerland). Non-specific binding sites were blocked overnight at 4° C. (or alternatively for 1 h at room temperature) with PBS/0.1% Tween®-20 containing 2% BSA (Sigma-Aldrich, Buchs, Switzerland) (PBST). […] Membranes were washed three times in PBST for 15 min at RT and then incubated with a donkey anti-human IgG Fcγ-specific antibody conjugated with HRP (1:20000 or 1:10000 dilution, Jackson ImmunoResearch Laboratories, Inc., West Grove, USA) for 1 h at room temperature. Antibody binding was determined by membrane development using ECL and ImageQuant 350 detection (GE Healthcare, Otelfingen, Switzerland).
(§3) The binding specificity of the human-derived antibodies to BSA-coupled C9orf72 dipeptide repeat proteins (GA)₁₅, (GP)₁₅, (GR)₁₅, (PA)₁₅ and (PR)₁₅ was determined by Western blot analysis.
In general terms: Immunoblotting shows a protein as a band on a membrane.

The target of test [3] is T3, BSA-coupled (PA)15 DPR protein peptide (bovine, UniProt P02769 25-607, conjugated via a bifunctional linker (SMCC) to bovine serum albumin).
T3 construct: also called BSA-(PA)15
The experiment in a line: Western blot of BSA-coupled peptides. As for the experimental part:
as §2, §3

Test [4] concerns the target T4, BSA-coupled (GR)15 DPR protein peptide (bovine, UniProt P02769 25-607, conjugated via a bifunctional linker (SMCC) to bovine serum albumin).
T4 construct: also called BSA-(GR)15
The experiment in a line: Western blot of BSA-coupled peptides. On the procedure: as §2, §3

A further test deals with T5, (PA)15: H-C(PA)15-OH.
T5 construct: synthetic, not coupled to BSA; also called poly-PA DPR protein peptide
T5 peptide: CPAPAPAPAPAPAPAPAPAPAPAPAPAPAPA
As to the kind of experiment: indirect ELISA, uncoupled peptide coated, antibody titrated [also D00011 FIG. 2M]. As for the experimental part:
as §1, with “(PR)₁₅: H—C(PR)₁₅-OH. 96-well microplates” for “(PR)₁₅: H—C(PR)₁₅-OH. DPR protein peptides were then conjugated via a bifunctional linker (SMCC) to bovine serum albumin (BSA). 96-well microplates”, “coated with dipeptide repeat” for “coated with BSA-coupled or -uncoupled dipeptide repeat”, “and incubated for 1 h” for “and incubated 1 h”, “Diego, USA). The binding specificity and EC₅₀ of human-derived antibodies for C9orf72 dipeptide repeat protein peptides (GA)₁₅, (GP)₁₅, (GR)₁₅, (PA)₁₅ and (PR)₁₅ were determined by indirect ELISA.” for “Diego, USA).”

For test [5], the target named is T6, (GA)15: H-CHHHHHH(GA)15-OH.
T6 construct: synthetic, not coupled to BSA; also called poly-GA DPR protein peptide
T6 peptide: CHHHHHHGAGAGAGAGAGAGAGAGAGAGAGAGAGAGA
Described as above. As for the experimental part:
as §1, with “(PR)₁₅: H—C(PR)₁₅-OH. 96-well microplates” for “(PR)₁₅: H—C(PR)₁₅-OH. DPR protein peptides were then conjugated via a bifunctional linker (SMCC) to bovine serum albumin (BSA). 96-well microplates”, “coated with dipeptide repeat” for “coated with BSA-coupled or -uncoupled dipeptide repeat”, “and incubated for 1 h” for “and incubated 1 h”, “Diego, USA). The binding specificity and EC₅₀ of human-derived antibodies for C9orf72 dipeptide repeat protein peptides (GA)₁₅, (GP)₁₅, (GR)₁₅, (PA)₁₅ and (PR)₁₅ were determined by indirect ELISA.” for “Diego, USA).”

Another test addresses T7, (PR)15: H-C(PR)15-OH.
T7 construct: synthetic, not coupled to BSA; also called poly-PR DPR protein peptide
T7 peptide: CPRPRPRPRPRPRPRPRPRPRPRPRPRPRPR
As to the kind of experiment: indirect ELISA, uncoupled peptide coated, antibody titrated [also D00016 FIG. 3M]. As for the experimental part: as §1

The next test addresses T8, (GR)15: H-C(GR)15-OH.
T8 construct: synthetic, not coupled to BSA; also called poly-GR DPR protein peptide
T8 peptide: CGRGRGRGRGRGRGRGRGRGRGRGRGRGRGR
As to the kind of experiment: indirect ELISA, coated peptide. As for the experimental part: as §1, with “(PR)₁₅: H—C(PR)₁₅-OH. 96-well microplates” for “(PR)₁₅: H—C(PR)₁₅-OH. DPR protein peptides were then conjugated via a bifunctional linker (SMCC) to bovine serum albumin (BSA). 96-well microplates”, “coated with dipeptide repeat” for “coated with BSA-coupled or -uncoupled dipeptide repeat”, “and incubated for 1 h” for “and incubated 1 h”, “Diego, USA). The binding specificity and EC₅₀ of human-derived antibodies for C9orf72 dipeptide repeat protein peptides (GA)₁₅, (GP)₁₅, (GR)₁₅, (PA)₁₅ and (PR)₁₅ were determined by indirect ELISA.” for “Diego, USA).”

The next test has as its target T9, (GP)15: H-C(GP)15-OH.
T9 construct: synthetic, not coupled to BSA; also called poly-GP DPR protein peptide
T9 peptide: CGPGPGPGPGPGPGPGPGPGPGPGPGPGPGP
The experiment in a line: indirect ELISA, coated peptide. On the procedure:
as §1, with “(PR)₁₅: H—C(PR)₁₅-OH. 96-well microplates” for “(PR)₁₅: H—C(PR)₁₅-OH. DPR protein peptides were then conjugated via a bifunctional linker (SMCC) to bovine serum albumin (BSA). 96-well microplates”, “coated with dipeptide repeat” for “coated with BSA-coupled or -uncoupled dipeptide repeat”, “and incubated for 1 h” for “and incubated 1 h”, “Diego, USA). The binding specificity and EC₅₀ of human-derived antibodies for C9orf72 dipeptide repeat protein peptides (GA)₁₅, (GP)₁₅, (GR)₁₅, (PA)₁₅ and (PR)₁₅ were determined by indirect ELISA.” for “Diego, USA).”

T4 sequence (P02769 25-607 limits assumed): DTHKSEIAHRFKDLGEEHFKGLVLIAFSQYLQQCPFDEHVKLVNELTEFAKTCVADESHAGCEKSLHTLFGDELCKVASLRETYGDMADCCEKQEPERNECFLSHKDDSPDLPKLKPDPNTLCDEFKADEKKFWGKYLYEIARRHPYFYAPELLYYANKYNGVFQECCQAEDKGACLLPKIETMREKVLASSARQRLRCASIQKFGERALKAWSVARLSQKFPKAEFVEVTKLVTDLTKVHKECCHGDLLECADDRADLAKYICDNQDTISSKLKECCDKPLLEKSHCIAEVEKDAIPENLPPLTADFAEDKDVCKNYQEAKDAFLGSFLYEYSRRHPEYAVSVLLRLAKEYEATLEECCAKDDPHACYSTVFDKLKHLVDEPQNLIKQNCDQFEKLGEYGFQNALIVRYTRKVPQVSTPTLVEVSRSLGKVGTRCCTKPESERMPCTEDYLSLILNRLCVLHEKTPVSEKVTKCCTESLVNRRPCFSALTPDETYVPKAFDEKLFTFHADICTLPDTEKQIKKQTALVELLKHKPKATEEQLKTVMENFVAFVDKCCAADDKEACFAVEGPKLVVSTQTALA
T2 sequence (P02769 25-607 limits assumed): as above
T1 sequence (P02769 25-607 limits assumed): as above
T3 sequence (P02769 25-607 limits assumed): as above

B1: NI-308.16C10 (antibody, V domains shown)
VH: EVQLVETGGGVVQPGMSLSLSCAATGFTFSSYGMHWVRQGPGKGPEWVAGIWYDGTNKYYGDSVTGRVTISRDNSKNTLFLQMINVRVEDTAVYYCVKDAERVQKWASYIMDVWGQGTTVTVSS
VL: EIVLTQSPGILSLSRGNRVALSCRASRSVNSSYLNWYQQKPGQAPRLLIYGASKRATGISDRFRGTGSGTDFTLTVARLEPEDIAVYYCQHYGAFGQGTKLEIK
notes: Recombinant complete human IgG1, kappa
The term EC50 denotes the concentration needed to bring the measured effect to its halfway point. For the molecule B1, the figures for the EC50 (in [1]; in [5]; with (PR)15: H-C(PR)15-OH) were 91.1 nM, 55.1 nM and 3.5 nM, respectively. The binding result is reported as “no binding” in test [2]; “no binding” in [3]; “no binding” in [4]; “no binding (tested: about 4x10^5 pM (last point))” with (PA)15: H-C(PA)15-OH; “no binding” in the test with (GR)15: H-C(GR)15-OH; “no binding” in the test with (GP)15: H-C(GP)15-OH.
